The values that follow come from article doi:10.1101/2025.08.07.668011, “High-Speed AFM Reveals IDR-Mediated Structural Plasticity of EML4-ALK Modulated by ALK Inhibitors” (bioRxiv, 2025).

Values joined by “and” are separate entries in the source; they are usually repeats but may differ in a detail not shown here. Equal values may be shown once.

The data set concerns the molecule itself. Kind of data set: high-speed atomic force microscopy (HS-AFM); purified protein (approximately 3 nM) deposited on mica for 10 min, rinsed, imaged in 1/10 diluted PBS in tapping mode; oligomeric state from total pixel density, number of globules and behaviour in time-lapse images; molecules counted as monomer, dimer or trimer in broad fields; formation and dissociation seen in real time (reversible).

B1: EML4-ALK variant-1 (v1, E13:A20) (natural protein, human, UniProt Q9HC35 1-496, looked up)
chain: MDGFAGSLDDSISAASTSDVQDRLSALESRVQQQEDEITVLKAALADVLRRLAISEDHVASVKKSVSSKGQPSPRAVIPMSCITNGSGANRKPSHTSAVSIAGKETLSSAAKSGTEKKKEKPQGQREKKEESHSNDQSPQIRASPSPQPSSQPLQIHRQTPESKNATPTKSIKRPSPAEKSHNSWENSDDSRNKLSKIPSTPKLIPKVTKTADKHKDVIINQEGEYIKMFMRGRPITMFIPSDVDNYDDIRTELPPEKLKLEWAYGYRGKDCRANVYLLPTGKIVYFIASVVVLFNYEERTQRHYLGHTDCVKCLAIHPDKIRIATGQIAGVDKDGRPLQPHVRVWDSVTLSTLQIIGLGTFERGVGCLDFSKADSGVHLCIIDDSNEHMLTVWDWQKKAKGAEIKTTNEVVLAVEFHPTDANTIITCGKSHIFFWTWSGNSLTRKQGIFGKYEKPKFVQCLAFLGNGDVLTGDSGGVMLIWSKTTVEPTPGKGPKVYRRKHQELQAMQMELQSPEYKLSKLRTSTIMTDYNPNYCFAGKTSSISDLKEVPRKNITLIRGLGHGAFGEVYEGQVSGMPNDPSPLQVAVKTLPEVCSEQDELDFLMEALIISKFNHQNIVRCIGVSLQSLPRFILLELMAGGDLKSFLRETRPRPSQPSSLAMLDLLHVARDIACGCQYLEENHFIHRDIAARNCLLTCPGPGRVAKIGDFGMARDIYRASYYRKGGCAMLPVKWMPPEAFMEGIFTSKTDTWSFGVLLWEIFSLGYMPYPSKSNQEVLEFVTSGGRMDPPKNCPGPVYRIMTQCWQHQPEDRPNFAIILERIEYCTQDPDVINTALPIEYGPLVEEEEKVPVRPKDPEGVPPLLVSQQAKREEERSPAAPPPLPTTSSGKAAKKPTAAEISVRVPRGPAVEGGHVNMAFSQSNPPSELHKVHGSRNKPTSLWNPTYGSWFTEKPTKKNNPIAKKEPHDRGNLGLEGSCTVPPNVATGRLPGASLLLEPSSLTANMKEVPLFRLRHFPCGNVNYGYQQQGLPLEAATAPGAGHYEDTILKSKNSMNQPGP
notes: EML4, N-terminal part up to exon 13 (E13:A20): CC/TD domain, basic region, part of the TAPE domain (HELP, WD repeats); ALK, from exon 20 (A20) to the C-terminus, residues 1058-1620, holds the tyrosine kinase domain; ENLYFQ probably stays; also called EML4-ALK v1; source: Expi293F, transfected, purified (anti-FLAG M2 gel, TEV protease and His-tag beads, Superdex 200 SEC); not shown: His tag …
Take B1: the ratio of dimers is 15%; the ratio of trimers was determined as 9%; the “stoichiometry N” value was 2 and 3.

In general, stoichiometry N refers to a count of units in the complex or per binding partner.
